According to patent US20240100133A1, “ENZYMATICALLY INACTIVE GRANZYME A AND USES THEREFORE” (Saint Louis University, priority 2022, published 2024):
Where two headings read alike, the source gives them in different places.

T1: CD14 (Homo sapiens, UniProt P08571)
T1 sequence (P08571 20-345): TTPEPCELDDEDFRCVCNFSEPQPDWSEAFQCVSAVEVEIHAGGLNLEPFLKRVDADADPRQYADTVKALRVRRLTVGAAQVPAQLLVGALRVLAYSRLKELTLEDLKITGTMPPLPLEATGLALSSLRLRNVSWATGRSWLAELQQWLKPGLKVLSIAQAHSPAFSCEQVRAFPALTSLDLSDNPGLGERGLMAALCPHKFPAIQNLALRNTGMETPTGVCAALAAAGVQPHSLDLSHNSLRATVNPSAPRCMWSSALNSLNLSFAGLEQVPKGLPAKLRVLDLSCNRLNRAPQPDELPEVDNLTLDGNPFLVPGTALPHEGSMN


Legend:
[1] = BLT esterase assay for GzmA enzyme activity; format: biochemical; conditions: 120 pM protein; substrate BLT
Experimental: BLT esterase protocol for measuring GzmA enzyme activity. BLT esterase assays and calculation of specific activity were adapted from (Rasi et al., 2021; Rasi et al., 2022). Substrate Z-L-Lys-SBz1 hydrochloride (Sigma #C3647-25MG) was added to 96 well plates with a serial dilution between 19.5-2,500 μM. Assay buffer consisted of 50 mM Tris, 154 mM NaCl, pH 7.5 in presence of […] (5,5-dithio-bis-(2-nitrobenzoic acid) (DTNB) chromophore. 120 pM of protein was added to each well and substrate hydrolysis was quantified by measuring the absorbance at 405 nm.

[2] = tested on: Connaught BCG within primary CD14+ human monocytes; format: cell-based; conditions: for inhibition of intracellular mycobacterial replication (MGIA): 72 h
[3] = tested on: Mtb H37Rv within primary CD14+ human monocytes; format: cell-based, Mycobacterium tuberculosis; conditions: 200 nM GzmA, Mtb MOI 1, human monocytes
[4] = tested on: mycobacteria within iMac-WT mouse cells; format: cell-based; conditions: human GzmA on mouse iMac-WT cells
[5] = tested on: mycobacteria BCG-GFP; format: binding
[6] = tested on: LAMP1 (phagolysosome fusion); experiment: Confocal microscopy colocalization of BCG-GFP and LAMP1; format: cell-based, human; conditions: compared with untreated controls
Experimental: Confocal microscopy and Stimulation Emission Depletion (STED) experiments. For confocal and STED microscopy experiments, cells were incubated on coverslips pre-treated with Cell-Tak (Corning #354240). At the time of fixation, cells were washed twice with 1×RT PBS, and then fixed in 4% paraformaldehyde for 15 min at 37° C. Slides were washed thrice for 5 min at RT with 1×PBS, and then blocked with 5% donkey serum (Cat. #017-000-121, Jackson ImmunoResearch, West Grove, PA) with 0.25% Tween-20 (Cat. #P9416, Sigma, St. Louis, MO) and True Stain Fc blocker (added only during blocking step) (Cat. #426101, Biolegend, San Diego, CA). Cells were then incubated overnight at 4° C. with primary antibody anti-GzmA (Cat. #MAB29051, R&D, Minneapolis, MN) at 12.5 μg/mL in blocking buffer, anti-PDIA1 (Cat. #MAB4236, R&D, Minneapolis, MN) at 12.5 μg/mL in blocking buffer, anti-LAMP1 at 12.5 ug/ml (Cat. #MAB4800, R&D, Minneapolis, MN), or anti-ATPSH (Cat. #ab110275, Abcam, Cambridge, UK) at 5 μg/mL in blocking buffer. To remove unbound antibody, cells were washed four times with 1×PBS at RT, and then incubated in the dark for 2 h with secondary antibody conjugated with Alexa Fluor 594 (Cat. #715-545-150, Jackson Immunoresearch, West Grove, PA) at 1:100 or Atto 647N (Cat. #ASR3248, Abcepta, San Diego, Ca) at 1:100. […]

[7] = molecular target: T1, CD14; experiment: Immunoprecipitation with anti-GzmA, probed for CD14; conditions: human monocyte lysates, infected and uninfected cells
[8] = molecular target: TLR4 (Homo sapiens, UniProt O00206); experiment: Immunoprecipitation with anti-GzmA, probed for TLR4; conditions: human monocyte lysates, infected and uninfected cells
Chain of TLR4 (O00206 24-839): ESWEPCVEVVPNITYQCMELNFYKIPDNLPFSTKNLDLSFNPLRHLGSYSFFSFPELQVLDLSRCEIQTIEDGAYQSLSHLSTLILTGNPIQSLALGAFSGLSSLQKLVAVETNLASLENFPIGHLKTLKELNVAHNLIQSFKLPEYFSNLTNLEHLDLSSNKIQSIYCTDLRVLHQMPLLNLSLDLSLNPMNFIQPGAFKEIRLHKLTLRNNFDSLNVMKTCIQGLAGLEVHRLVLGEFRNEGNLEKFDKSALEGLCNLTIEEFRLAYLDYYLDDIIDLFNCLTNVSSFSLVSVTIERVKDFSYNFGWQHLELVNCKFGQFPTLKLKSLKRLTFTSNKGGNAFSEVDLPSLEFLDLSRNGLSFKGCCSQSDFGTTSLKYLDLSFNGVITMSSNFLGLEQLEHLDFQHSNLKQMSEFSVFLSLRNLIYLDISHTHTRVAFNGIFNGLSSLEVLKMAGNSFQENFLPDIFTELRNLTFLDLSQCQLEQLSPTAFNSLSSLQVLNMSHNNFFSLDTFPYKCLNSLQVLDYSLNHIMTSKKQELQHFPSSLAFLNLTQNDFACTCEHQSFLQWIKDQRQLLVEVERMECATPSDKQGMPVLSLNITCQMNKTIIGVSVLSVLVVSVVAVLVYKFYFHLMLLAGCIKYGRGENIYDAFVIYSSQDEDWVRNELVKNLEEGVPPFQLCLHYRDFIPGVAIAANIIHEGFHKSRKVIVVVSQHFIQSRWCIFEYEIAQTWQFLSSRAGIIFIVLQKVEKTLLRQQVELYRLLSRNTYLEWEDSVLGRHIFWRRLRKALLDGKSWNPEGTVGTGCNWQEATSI

Molecule | enzymatic (esterase) activity, cleavage of BLT [1] | effect of monomeric GzmA on protective effects of GzmA-WT (mixing experiment) [2] | intracellular replication of pre-opsonized mycobacteria (excess protein removed) [2] | inhibition of intracellular mycobacterial replication (MGIA) [2] | inhibition of intracellular Mtb (MGIA) [3] | inhibition of mycobacterial growth in iMac-WT cells [4] | binding to mycobacteria [5] | colocalization between LAMP1 and BCG-GFP [6] | binding to CD14 (immunoprecipitation) [7] | binding to TLR4 (immunoprecipitation) [8] | GzmA inhibitory activity after CD14 neutralization (MGIA) [2] | GzmA inhibitory activity after TLR2 neutralization (MGIA) [2] | inhibition of intracellular Mtb (MGIA) ([3]; listed as recombinant enzymatically inactive GzmA)
GzmA-C93S: Granzyme A variant with cysteine 93 substituted with serine; forms only monomers, retains enzymatic activity (protein, left off: small tags and cut ends) IIGGNEVTPHSRPYMVLLSLDRKTICAGALIAKDWVLTAAHCNLNKRSQVILGAHSITREEPTKQIMLVKKEFPYPSYDPATREGDLKLLQLMEKAKINKYVTILHLPKKGDDVKPGTMCQVAGWGRTHNSASWSDTLREVNITIIDRKVCNDRNHYNFNPVIGMNMVCAGSLRGGRDSCNGDSGSPLLCEGVFRGVTSFGLENKCGDPRGPGVYILLSKKHLNWIIMTIKGAV | cleaved similar amounts of BLT as GzmA-WT | partially inhibit the protective effects of GzmA-WT | cannot | loses its inhibitory activity | did not | did not | able to bind mycobacteria | fails to direct mycobacteria into the phagolysosome | does not | does not | – | – | –
GzmA-S195A (protein, left off: small tags and cut ends) IIGGNEVTPHSRPYMVLLSLDRKTICAGALIAKDWVLTAAHCNLNKRSQVILGAHSITREEPTKQIMLVKKEFPYPCYDPATREGDLKLLQLMEKAKINKYVTILHLPKKGDDVKPGTMCQVAGWGRTHNSASWSDTLREVNITIIDRKVCNDRNHYNFNPVIGMNMVCAGSLRGGRDSCNGDAGSPLLCEGVFRGVTSFGLENKCGDPRGPGVYILLSKKHLNWIIMTIKGAV | loses its enzymatic activity | – | – | inhibits the intracellular replication of mycobacteria | inhibited Mtb | modestly inhibit mycobacterial growth | bound mycobacteria | – | – | – | lost their inhibitory activity | does not reverse | very potent at protecting against Mtb intracellular infection
